Results from IntAct's records for PubMed 23572552.

B1: TBC1 domain family member 22A (Homo sapiens), Q8WUA7 (parent)
chain: MASDGARKQFWKRSNSKLPGSIQHVYGAQHPPFDPLLHGTLLRSTAKMPTTPVKAKRVSTFQEFESNTSDAWDAGEDDDELLAMAAESLNSEVVMETANRVLRNHSQRQGRPTLQEGPGLQQKPRPEAEPPSPPSGDLRLVKSVSESHTSCPAESASDAAPLQRSQSLPHSATVTLGGTSDPSTLSSSALSEREASRLDKFKQLLAGPNTDLEELRRLSWSGIPKPVRPMTWKLLSGYLPANVDRRPATLQRKQKEYFAFIEHYYDSRNDEVHQDTYRQIHIDIPRMSPEALILQPKVTEIFERILFIWAIRHPASGYVQGINDLVTPFFVVFICEYIEAEEVDTVDVSGVPAEVLCNIEADTYWCMSKLLDGIQDNYTFAQPGIQMKVKMLEELVSRIDEQVHRHLDQHEVRYLQFAFRWMNNLLMREVPLRCTIRLWDTYQSEPDGFSHFHLYVCAAFLVRWRKEILEEKDFQELLLFLQNLPTAHWDDEDISLLLAEAYRLKFAFADAPNHYKK
B2: Golgi resident protein GCP60 (Homo sapiens), Q9H3P7 (parent)
chain: MAAVLNAERLEVSVDGLTLSPDPEERPGAEGAPLLPPPLPPPSPPGSGRGPGASGEQPEPGEAAAGGAAEEARRLEQRWGFGLEELYGLALRFFKEKDGKAFHPTYEEKLKLVALHKQVLMGPYNPDTCPEVGFFDVLGNDRRREWAALGNMSKEDAMVEFVKLLNRCCHLFSTYVASHKIEKEEQEKKRKEEEERRRREEEERERLQKEEEKRRREEEERLRREEEERRRIEEERLRLEQQKQQIMAALNSQTAVQFQQYAAQQYPGNYEQQQILIRQLQEQHYQQYMQQLYQVQLAQQQAALQKQQEVVVAGSSLPTSSKVNATVPSNMMSVNGQAKTHTDSSEKELEPEAAEEALENGPKESLPVIAAPSMWTRPQIKDFKEKIQQDADSVITVGRGEVVTVRVPTHEEGSYLFWEFATDNYDIGFGVYFEWTDSPNTAVSVHVSESSDDDEEEEENIGCEEKAKKNANKPLLDEIVPVYRRDCHEEVYAGSHQYPGRGVYLLKFDNSYSLWRSKSVYYRVYYTR

Variants of: B1
Conditions: with gcp60_human ACBD3, Q9H3P7

Row | Variant | effect of a mutation on the interaction
1 | MASDGARKQFWKRSNSKLPGSIQHVYGAQHPPFDPLLHGTLLRSTAKMPTTPVKAKRVSTFQEFESNTSDAWDAGEDDDELLAMAAESLNSEVVMETANRVLRNHSQRQGRPTLQEGPGLQQKPRPEAEPPSPPSGDLRLVKSVSESHTSCPAESASDAAPLQREQSLPHSATVTLGGTSDPSTLSSSALSEREASRLDKFKQLLAGPNTDLEELRRLSWSGIPKPVRPMTWKLLSGYLPANVDRRPATLQRKQKEYFAFIEHYYDSRNDEVHQDTYRQIHIDIPRMSPEALILQPKVTEIFERILFIWAIRHPASGYVQGINDLVTPFFVVFICEYIEAEEVDTVDVSGVPAEVLCNIEADTYWCMSKLLDGIQDNYTFAQPGIQMKVKMLEELVSRIDEQVHRHLDQHEVRYLQFAFRWMNNLLMREVPLRCTIRLWDTYQSEPDGFSHFHLYVCAAFLVRWRKEILEEKDFQELLLFLQNLPTAHWDDEDISLLLAEAYRLKFAFADAPNHYKK [S165E] | with no effect

Variants of: B1
Conditions: with gcp60_human ACBD3, Q9H3P7
Remark: another data set of the same source

Row | Variant | effect of a mutation on the interaction
2 | MASDGARKQFWKRSNSKLPGSIQHVYGAQHPPFDPLLHGTLLRSTAKMPTTPVKAKRVSTFQEFESNTSDAWDAGEDDDELLAMAAESLNSEVVMETANRAARNHSQRQGRPTLQEGPGLQQKPRPEAEPPSPPSGDLRLVKSVSESHTSCPAESASDAAPLQRSQSLPHSATVTLGGTSDPSTLSSSALSEREASRLDKFKQLLAGPNTDLEELRRLSWSGIPKPVRPMTWKLLSGYLPANVDRRPATLQRKQKEYFAFIEHYYDSRNDEVHQDTYRQIHIDIPRMSPEALILQPKVTEIFERILFIWAIRHPASGYVQGINDLVTPFFVVFICEYIEAEEVDTVDVSGVPAEVLCNIEADTYWCMSKLLDGIQDNYTFAQPGIQMKVKMLEELVSRIDEQVHRHLDQHEVRYLQFAFRWMNNLLMREVPLRCTIRLWDTYQSEPDGFSHFHLYVCAAFLVRWRKEILEEKDFQELLLFLQNLPTAHWDDEDISLLLAEAYRLKFAFADAPNHYKK [V101A;L102A] | disrupting interaction strength
3 | MASDGARKQFWKRSNSKLPGSIQHVYGAQHPPFDPLLHGTLLRSTAKMPTTPVKAKRVSTFQEFESNTSDAWDAGEDDDELLAMAAESLNSEVVMETAAAVLRNHSQRQGRPTLQEGPGLQQKPRPEAEPPSPPSGDLRLVKSVSESHTSCPAESASDAAPLQRSQSLPHSATVTLGGTSDPSTLSSSALSEREASRLDKFKQLLAGPNTDLEELRRLSWSGIPKPVRPMTWKLLSGYLPANVDRRPATLQRKQKEYFAFIEHYYDSRNDEVHQDTYRQIHIDIPRMSPEALILQPKVTEIFERILFIWAIRHPASGYVQGINDLVTPFFVVFICEYIEAEEVDTVDVSGVPAEVLCNIEADTYWCMSKLLDGIQDNYTFAQPGIQMKVKMLEELVSRIDEQVHRHLDQHEVRYLQFAFRWMNNLLMREVPLRCTIRLWDTYQSEPDGFSHFHLYVCAAFLVRWRKEILEEKDFQELLLFLQNLPTAHWDDEDISLLLAEAYRLKFAFADAPNHYKK [N99A;R100A] | with no effect

Variants of: B2
Conditions: with polg_hkv1 polg

Row | Variant | effect of a mutation on the interaction
4 | MAAVLNAERLEVSVDGLTLSPDPEERPGAEGAPLLPPPLPPPSPPGSGRGPGASGEQPEPGEAAAGGAAEEARRLEQRWGFGLEELYGLALRFFKEKDGKAFHPTYEEKLKLVALHKQVLMGPYNPDTCPEVGFFDVLGNDRRREWAALGNMSKEDAMVEFVKLLNRCCHLFSTYVASHKIEKEEQEKKRKEEEERRRREEEERERLQKEEEKRRREEEERLRREEEERRRIEEERLRLEQQKQQIMAALNSQTAVQFQQYAAQQYPGNYEQQQILIRQLQEQHYQQYMQQLYQVQLAQQQAALQKQQEVVVAGSSLPTSSKVNATVPSNMMSVNGQAKTHTDSSEKELEPEAAEEALENGPKESLPVIAAPSMWTRPQIKDFKEKIQQDADSVITVGRGEVVTVRVPTHEEGSYLFWEFATDNYDIGFGVYFEWTDSPNTAVSVHVSESSDDDEEEEENIGCEEKAKKNANKPLLDEIVPVYRRDCHEEVYAGSHQYPGRGVYLLAAAASYSLWRSKSVYYRVYYTR [K507A;F508A;D509A;N510A] | disrupting interaction strength

Variants of: B2
Conditions: with polg_aiva8 polg

Row | Variant | effect of a mutation on the interaction
5 | MAAVLNAERLEVSVDGLTLSPDPEERPGAEGAPLLPPPLPPPSPPGSGRGPGASGEQPEPGEAAAGGAAEEARRLEQRWGFGLEELYGLALRFFKEKDGKAFHPTYEEKLKLVALHKQVLMGPYNPDTCPEVGFFDVLGNDRRREWAALGNMSKEDAMVEFVKLLNRCCHLFSTYVASHKIEKEEQEKKRKEEEERRRREEEERERLQKEEEKRRREEEERLRREEEERRRIEEERLRLEQQKQQIMAALNSQTAVQFQQYAAQQYPGNYEQQQILIRQLQEQHYQQYMQQLYQVQLAQQQAALQKQQEVVVAGSSLPTSSKVNATVPSNMMSVNGQAKTHTDSSEKELEPEAAEEALENGPKESLPVIAAPSMWTRPQIKDFKEKIQQDADSVITVGRGEVVTVRVPTHEEGSYLFWEFATDNYDIGFGVYFEWTDSPNTAVSVHVSESSDDDEEEEENIGCEEKAKKNANKPLLDEIVPVYRRDCHEEVYAGSHQYPGRGVYLLKFDNSYALWRSKSVYYRVYYTR [S513A] | with no effect
6 | MAAVLNAERLEVSVDGLTLSPDPEERPGAEGAPLLPPPLPPPSPPGSGRGPGASGEQPEPGEAAAGGAAEEARRLEQRWGFGLEELYGLALRFFKEKDGKAFHPTYEEKLKLVALHKQVLMGPYNPDTCPEVGFFDVLGNDRRREWAALGNMSKEDAMVEFVKLLNRCCHLFSTYVASHKIEKEEQEKKRKEEEERRRREEEERERLQKEEEKRRREEEERLRREEEERRRIEEERLRLEQQKQQIMAALNSQTAVQFQQYAAQQYPGNYEQQQILIRQLQEQHYQQYMQQLYQVQLAQQQAALQKQQEVVVAGSSLPTSSKVNATVPSNMMSVNGQAKTHTDSSEKELEPEAAEEALENGPKESLPVIAAPSMWTRPQIKDFKEKIQQDADSVITVGRGEVVTVRVPTHEEGSYLFWEFATDNYDIGFGVYFEWTDSPNTAVSVHVSESSDDDEEEEENIGCEEKAKKNANKPLLDEIVPVYRRDCHEEVYAGSHQYPGRGVYLLKFDNSASLWRSKSVYYRVYYTR [Y512A] | decreasing interaction strength
